The results in this text go back to patent US20200362034A1.

The target of this assay is human glucagon ligand peptide-1 receptor (GLP1R) (human) (UniProt P43220). Description: cell-based or functional assay.
Sequence of human glucagon ligand peptide-1 receptor (GLP1R) (human) (P43220 24-463): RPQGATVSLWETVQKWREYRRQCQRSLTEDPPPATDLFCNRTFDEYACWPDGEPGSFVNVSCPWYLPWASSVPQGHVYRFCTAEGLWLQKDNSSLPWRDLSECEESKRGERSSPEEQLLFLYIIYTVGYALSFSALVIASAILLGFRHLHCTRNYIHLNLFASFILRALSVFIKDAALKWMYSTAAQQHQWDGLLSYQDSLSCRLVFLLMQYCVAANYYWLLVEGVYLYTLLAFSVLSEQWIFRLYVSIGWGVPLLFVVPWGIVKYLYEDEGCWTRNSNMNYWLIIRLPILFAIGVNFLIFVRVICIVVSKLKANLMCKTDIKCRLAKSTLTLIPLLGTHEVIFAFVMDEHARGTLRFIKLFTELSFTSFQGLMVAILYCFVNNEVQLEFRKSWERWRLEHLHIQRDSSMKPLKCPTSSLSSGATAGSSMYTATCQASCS

Extendin-4 (peptide): the EC 50 (nM), cAMP Hunter bioassay on CHO-K1 cells overexpressing human GLP1R worked out at 0.46 nM.
